The values below come from patent publication US20250320295A1 (INHIBRX BIOSCIENCES, published 2025).

The target of test [1] is T1, Human CD8a (human, UniProt P01732 22-235).
T1 construct: also called CD8α; human CD8a-FL
Briefly: flow cytometry, HEK293F cells transfected with full-length human CD8a (GFP+ gate). As to the method: (§1) Binding of parental and two of the humanized CD8a-binding polypeptides described above was assessed by flow cytometry on transfected HEK293F cells. The HEK293F cells were transiently transfected with a plasmid encoding full length human or cynomolgus monkey CD8α followed by an IRES and GFP. The transfected cells were plated in a 96-well plate at 30,000 cells per well in FACS buffer (PBS, 1% BSA, 0.1% NaN₃, pH 7.4). Test polypeptides were then diluted to 2× the final concentration of 500 nM and 3-, 4-, and 5-fold serial dilutions were made. FACS buffer with no polypeptide was used as a secondary antibody-only control. Test polypeptides were added to an equal volume of cells, and assay plates were incubated for 30 minutes at 4° C. After washing twice with 150 μL of FACS buffer per well, the cells were resuspended in FACS buffer with fluorescently-labeled anti-human Fc antibody diluted 1:2000. Assay plates were incubated at 4° C. for 20 minutes. After one additional wash with 150 μL of FACS buffer, bound polypeptide was detected by flow cytometry. Flow cytometric detection was performed on an Intellicyt iQue Plus. CD8a-expressing transfected cells were gated as GFP positive, and polypeptide binding was measured as median fluorescence at 647 nm. The data was plotted and analyzed using GraphPad Prism analysis software.

Test [2] addresses T1, Human CD8a. The experiment in a line: flow cytometry, isolated human T cells, CD3+CD4- gate. As to the method:
(§2) Binding of parental and two humanized CD8a-binding polypeptides described above was assessed by flow cytometry on isolated human T cells and on isolated cynomolgus monkey PBMC. The isolated cells were plated in a 96-well plate at 200,000 cells per well for cynomolgus monkey PBMC, and 50,000 cells per well for human T cells in FACS buffer (PBS, 1% BSA, 0.1% NaN₃, pH 7.4). […] FACS buffer alone was used as a secondary antibody-only control. Polypeptide dilutions were added to an equal volume of cells, and assay plates were incubated for 30 minutes at 4° C. After washing twice with 150 μL of FACS buffer per well, the cells were resuspended in FACS buffer with fluorescently-labeled anti-human antibody diluted 1:1000 to detect CD8α binding, and fluorescently labeled anti-CD3 antibody (clone SP34.2) diluted 1:40, and anti-CD4 antibody (clone OKT4) diluted 1:100. Assay plates were incubated at 4° C. for 20 minutes. After one additional wash with 150 μL of FACS buffer, CD8α binding was detected by flow cytometry on CD3+CD4− cells. Binding was measured on these cell populations as mean fluorescence at 647 nm. The data was plotted and analyzed using GraphPad Prism analysis software. Flow cytometric detection was performed on an ACEA Biosciences Novocyte-Quanteon Flow Cytometer. The results are shown in Table 6 and 7 and in FIGS. 4A-B.
On the technique in general: Flow cytometry measures light scatter and fluorescence of single cells or particles in a stream.

Test [3] has as its target T1, Human CD8a. The experiment in a line: flow cytometry, isolated human T cells, CD4- gate, anti-human Fc detection. As to the method: FACS buffer with no polypeptide was used as a secondary antibody-only control. Polypeptide dilutions were added to an equal volume of cells, and assay plates were incubated for 30 minutes at 4° C. […] Assay plates were incubated at 4° C. for 20 minutes. […] The data was plotted and analyzed using GraphPad Prism analysis software. Flow cytometric detection was performed on an Intellicyt iQue Plus.

In test [4] the target is T2, Cynomolgus monkey CD8a (cynomolgus monkey).
T2 construct: whole, on cells; On transfected HEK293F cells (full length) or natively on cynomolgus PBMC T cells; also called cynomolgus CD8a-FL; cynomolgus monkey CD8α
Briefly: flow cytometry, cynomolgus PBMC, CD3+CD4- gate. On the procedure:
as §2

The target of test [5] is T2, Cynomolgus monkey CD8a. Briefly: flow cytometry, HEK293F cells transfected with full-length cynomolgus CD8a (GFP+ gate). As to the method: as §1
For a further test, the target named is T3, IL-2 receptor (human, UniProt P01589 22-272; P14784 27-551; P31785 23-369).
T3 sequence (looked up) 1: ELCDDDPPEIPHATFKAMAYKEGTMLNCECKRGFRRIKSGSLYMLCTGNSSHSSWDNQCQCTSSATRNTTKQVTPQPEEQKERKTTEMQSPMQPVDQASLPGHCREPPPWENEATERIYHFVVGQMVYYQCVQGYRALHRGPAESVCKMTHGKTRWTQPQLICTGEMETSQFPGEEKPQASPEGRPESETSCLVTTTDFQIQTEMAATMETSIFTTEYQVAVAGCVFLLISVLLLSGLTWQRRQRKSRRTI
T3 sequence (looked up) 2: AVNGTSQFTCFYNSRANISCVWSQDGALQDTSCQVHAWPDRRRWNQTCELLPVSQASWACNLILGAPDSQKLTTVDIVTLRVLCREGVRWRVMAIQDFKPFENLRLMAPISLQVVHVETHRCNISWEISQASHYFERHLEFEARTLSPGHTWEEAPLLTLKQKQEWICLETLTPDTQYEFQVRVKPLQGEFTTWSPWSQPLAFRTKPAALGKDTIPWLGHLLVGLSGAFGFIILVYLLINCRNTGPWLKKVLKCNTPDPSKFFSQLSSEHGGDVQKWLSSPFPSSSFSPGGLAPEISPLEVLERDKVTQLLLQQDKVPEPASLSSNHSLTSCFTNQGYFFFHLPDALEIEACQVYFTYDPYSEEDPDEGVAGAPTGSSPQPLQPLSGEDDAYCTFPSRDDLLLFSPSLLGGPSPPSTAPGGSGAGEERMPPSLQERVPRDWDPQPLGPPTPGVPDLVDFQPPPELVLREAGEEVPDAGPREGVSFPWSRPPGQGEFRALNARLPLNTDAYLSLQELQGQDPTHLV
T3 sequence (looked up) 3: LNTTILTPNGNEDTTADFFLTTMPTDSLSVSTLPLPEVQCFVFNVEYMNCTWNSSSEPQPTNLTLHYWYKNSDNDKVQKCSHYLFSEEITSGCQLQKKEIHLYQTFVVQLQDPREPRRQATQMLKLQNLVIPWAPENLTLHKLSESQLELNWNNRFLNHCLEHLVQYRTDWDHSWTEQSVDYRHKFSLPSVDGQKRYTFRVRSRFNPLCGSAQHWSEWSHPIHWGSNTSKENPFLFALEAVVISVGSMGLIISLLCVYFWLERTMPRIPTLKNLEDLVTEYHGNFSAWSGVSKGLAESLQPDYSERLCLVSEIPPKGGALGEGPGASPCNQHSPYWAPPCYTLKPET
Briefly: cell-based or functional assay.

In test [6] the target is T2, Cynomolgus monkey CD8a. The experiment in a line: flow cytometry on CD8 T cells (PI- CD3+ CD4-) within cynomolgus monkey PBMC, fluorescent anti-human IgG secondary, MFI at 647 nm. As to the method: Binding of four polypeptides comprising a humanized CD8a-binding VHH domain fused to an xELL fc region was assessed by flow cytometry on isolated human T cells and on isolated human or cynomolgus monkey peripheral blood mononuclear cells (PBMC). The isolated cells were plated in a 96-well plate at 200,000 cells per well for cynomolgus monkey PBMC, and 100,000 cells per well for human T cells in FACS buffer (PBS, 1% BSA, 0.1% NaN₃, pH 7.4). […] FACS buffer alone was used as a secondary antibody-only control. Polypeptide dilutions were added to an equal volume of cells, and assay plates were incubated for 30 minutes at 4° C. After washing twice with 150 μL of FACS buffer per well, the cells were resuspended in FACS buffer with a fluorescently labeled anti-human IgG antibody diluted 1:1000 to detect CD8α binding, fluorescently labeled anti-CD3 antibody (clone SP34.2, 1:50, for PBMC preparations only), and fluorescently labeled anti-CD4 antibody (clone OKT4, 1:100). Propidium iodide (PI) was added at 1:2000 to distinguish live cells from dead cells. Assay plates were incubated at 4° C. for 30 minutes. After one additional wash with 150 μL of FACS buffer CD8α binding was detected by flow cytometry on PI−(CD3+) CD4− cells. Binding was measured on these cell populations as mean fluorescence intensity (MFI) at 647 nm. […] The data were plotted and analyzed using GraphPad Prism analysis software. […]

In test [7] the target is T2, Cynomolgus monkey CD8a. The experiment in a line: flow cytometry, cynomolgus PBMC, PI-CD3+CD4- gate. As to the method:
Binding of four polypeptides comprising a humanized CD8a-binding VHH domain fused to an xELL fc region was assessed by flow cytometry on isolated human T cells and on isolated human or cynomolgus monkey peripheral blood mononuclear cells (PBMC). The isolated cells were plated in a 96-well plate at 200,000 cells per well for cynomolgus monkey PBMC, and 100,000 cells per well for human T cells in FACS buffer (PBS, 1% BSA, 0.1% NaN₃, pH 7.4). […] FACS buffer alone was used as a secondary antibody-only control. Polypeptide dilutions were added to an equal volume of cells, and assay plates were incubated for 30 minutes at 4° C. After washing twice with 150 μL of FACS buffer per well, the cells were resuspended in FACS buffer with a fluorescently labeled anti-human IgG antibody diluted 1:1000 to detect CD8α binding, fluorescently labeled anti-CD3 antibody (clone SP34.2, 1:50, for PBMC preparations only), and fluorescently labeled anti-CD4 antibody (clone OKT4, 1:100). Propidium iodide (PI) was added at 1:2000 to distinguish live cells from dead cells. Assay plates were incubated at 4° C. for 30 minutes. After one additional wash with 150 μL of FACS buffer CD8α binding was detected by flow cytometry on PI−(CD3+) CD4− cells. Binding was measured on these cell populations as mean fluorescence intensity (MFI) at 647 nm. Flow cytometric detection was performed on an ACEA Biosciences Novocyte-Quanteon Flow Cytometer. The data were plotted and analyzed using GraphPad Prism analysis software. The results are shown in Table 12 and 13 and in FIGS. 10A-D.

Substitutions are numbered along the chain they refer to.

T1 sequence (P01732 22-235): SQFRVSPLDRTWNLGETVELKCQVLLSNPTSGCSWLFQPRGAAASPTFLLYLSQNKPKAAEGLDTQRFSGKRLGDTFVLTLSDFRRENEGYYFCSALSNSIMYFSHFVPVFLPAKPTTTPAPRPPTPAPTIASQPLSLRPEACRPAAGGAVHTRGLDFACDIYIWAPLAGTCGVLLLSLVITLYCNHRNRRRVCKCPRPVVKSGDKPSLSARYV

B1: hzB7v10-xELL-Fc (Fc fusion)
chain: EVQLVESGGGEVQPGGSLRLSCAASGFTFDDYAMSWVRQAPGKGLEWVSTITWEGEGTDYAESVKGRFTISRDNAKNTVYLQMSSLRAEDTAVYYCAKGSPELQYDSWGQGTLVTVKPGGDKTHTCPPCPAPGGPSVFLFPPKPKDTLMISRTPEVTCVVVDVSHEDPEVKFNWYVDGVEVHNAKTKPREEQYNSTYRVVSVLTVLHQDWLNGKEYKCKVSNKALPAPIEKTISKAKGQPREPQVYTLPPSRDELTKNQVSLTCLVKGFYPSDIAVEWESNGQPENNYKTTPPVLDSDGSFFLYSKLTVDKSRWQQGNVFSCSVMHEALHNHYTQKSLSLSPGK
notes: Homodimeric VHH-human IgG1 Fc xELL fusion
The term Kd denotes the equilibrium constant for the complex coming apart. In the case of B1, the Kd in the test with Human CD8a [1] was 0.565 nM; with Human CD8a [2] it was 0.085 nM; in the test with Human CD8a [3], 0.106 nM; with Cynomolgus monkey CD8a [4] it was 0.0737 nM; in the test with Cynomolgus monkey CD8a [5] it was 0.0973 nM.

B2: hzB7v31-xELL-KiH Fc-IL-2 mutant (Fc fusion)
chain 1: QVQLVQSGGGEVQPGGSLRLSCAASGFTFDDYAMSWVRQAPGKGLEWVSTITWDAGGTYYAAPVKGRFTISRDNAKNTVYLQMSSLRAEDTAVYYCAKGSPELQYDTWGQGTLVTVKPDKTHTCPPCPAPGGPSVFLFPPKPKDTLMISRTPEVTCVVVDVSHEDPEVKFNWYVDGVEVHNAKTKPREEQYNSTYRVVSVLTVLHQDWLNGKEYKCKVSNKALPAPIEKTISKAKGQPREPQVCTLPPSRDELTKNQVSLSCAVKGFYPSDIAVEWESNGQPENNYKTTPPVLDSDGSFFLVSKLTVDKSRWQQGNVFSCSVMHEALHNRYTQKSLSLSPGK
chain 2: QVQLVQSGGGEVQPGGSLRLSCAASGFTFDDYAMSWVRQAPGKGLEWVSTITWDAGGTYYAAPVKGRFTISRDNAKNTVYLQMSSLRAEDTAVYYCAKGSPELQYDTWGQGTLVTVKPDKTHTCPPCPAPGGPSVFLFPPKPKDTLMISRTPEVTCVVVDVSHEDPEVKFNWYVDGVEVHNAKTKPREEQYNSTYRVVSVLTVLHQDWLNGKEYKCKVSNKALPAPIEKTISKAKGQPREPQVYTLPPCRDELTKNQVSLWCLVKGFYPSDIAVEWESNGQPENNYKTTPPVLDSDGSFFLYSKLTVDKSRWQQGNVFSCSVMHEALHNHYTQKSLSLSPG
In the case of B2, the “EC50 of pSTAT5 induction in human CD8 T cells” value with IL-2 receptor is under 30 pM.

B3: hzB7v31-xELL-Fc (Fc fusion)
chain: B2 chain 1 with C244Y, S261T, A263L, V302Y, R330H
notes: Homodimeric VHH-human IgG1 Fc xELL fusion; also called CD8a-hzB7v31-Fc-xELL
The term EC50 (read off the curve) denotes the concentration that produces a half-maximal response. As for B3, the “EC50 (read off the curve)” value with Cynomolgus monkey CD8a [6] is about 0.05 nM. For the same molecule, binding with Cynomolgus monkey CD8a [7] was characterised by a dissociation constant (Kd) of 0.0389 nM.
